Changes are numbered by the printed parent chain. Names and notes keep the numbering of the source.

The target of experiment [1] is T1, IL-18 receptor (IL-18R) on HEK-Blue IL18R reporter cells (UniProt Q13478 19-541; O95256 20-599, limits assumed).
T1 sequence (looked up) 1: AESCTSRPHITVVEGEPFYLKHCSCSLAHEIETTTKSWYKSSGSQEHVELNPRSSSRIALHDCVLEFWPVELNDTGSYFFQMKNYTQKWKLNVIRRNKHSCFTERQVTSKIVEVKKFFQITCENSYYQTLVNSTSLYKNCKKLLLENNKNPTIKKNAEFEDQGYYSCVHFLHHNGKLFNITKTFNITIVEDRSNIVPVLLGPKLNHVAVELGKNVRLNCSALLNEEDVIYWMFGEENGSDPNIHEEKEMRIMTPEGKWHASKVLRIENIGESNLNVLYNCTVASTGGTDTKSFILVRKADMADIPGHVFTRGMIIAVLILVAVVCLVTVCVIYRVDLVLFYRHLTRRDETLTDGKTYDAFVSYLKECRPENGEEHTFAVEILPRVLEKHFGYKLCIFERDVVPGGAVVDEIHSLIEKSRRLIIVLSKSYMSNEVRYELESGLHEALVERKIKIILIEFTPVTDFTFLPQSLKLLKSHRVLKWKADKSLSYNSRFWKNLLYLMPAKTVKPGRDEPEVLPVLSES
T1 sequence (looked up) 2: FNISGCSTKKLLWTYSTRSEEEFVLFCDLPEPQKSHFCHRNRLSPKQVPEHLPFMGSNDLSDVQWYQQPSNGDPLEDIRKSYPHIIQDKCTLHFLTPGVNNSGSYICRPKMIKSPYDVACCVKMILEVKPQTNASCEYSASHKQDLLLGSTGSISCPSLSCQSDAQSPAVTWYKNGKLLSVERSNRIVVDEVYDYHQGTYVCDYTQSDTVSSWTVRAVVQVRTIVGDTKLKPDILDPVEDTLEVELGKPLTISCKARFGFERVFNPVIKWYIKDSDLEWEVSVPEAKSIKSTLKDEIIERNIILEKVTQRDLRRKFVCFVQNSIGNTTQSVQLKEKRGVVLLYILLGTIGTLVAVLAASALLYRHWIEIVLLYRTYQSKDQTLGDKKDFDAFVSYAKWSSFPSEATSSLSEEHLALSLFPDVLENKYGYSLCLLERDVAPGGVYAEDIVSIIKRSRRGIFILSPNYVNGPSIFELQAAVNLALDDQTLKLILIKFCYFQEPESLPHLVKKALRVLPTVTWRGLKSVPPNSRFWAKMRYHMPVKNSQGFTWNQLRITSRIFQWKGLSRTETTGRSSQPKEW
Nature of the experiment: cell-based or functional assay.

Experiment [2] has as its target T1, IL-18 receptor (IL-18R) on HEK-Blue …. Put plainly: cell-based or functional assay. This is another data set of the same source.
The next experiment has as its target T2, Fc fused human IL-18Rα (human, UniProt Q13478 19-329, limits assumed).
T2 construct: also called IL-18Rα monomer; human IL-18 receptor alpha (CD218a); not shown: Fc
T2 sequence (looked up): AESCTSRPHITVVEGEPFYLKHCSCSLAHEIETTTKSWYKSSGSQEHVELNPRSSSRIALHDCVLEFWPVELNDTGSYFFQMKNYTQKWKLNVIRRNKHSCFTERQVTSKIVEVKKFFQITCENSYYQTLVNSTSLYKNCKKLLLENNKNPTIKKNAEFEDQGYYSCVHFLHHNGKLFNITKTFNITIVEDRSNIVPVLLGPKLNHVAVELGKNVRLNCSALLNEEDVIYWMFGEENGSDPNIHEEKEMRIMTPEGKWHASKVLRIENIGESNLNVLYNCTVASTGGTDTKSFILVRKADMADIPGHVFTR
Nature of the experiment: SPR, Fc-IL-18Rα captured, 1:1 fit. The procedure:
(§1) The interaction of the wild type and of modified IL-18 polypeptides with human IL-18 receptor subunits are measured with Surface Plasmon Resonance (SPR) technology. Anti-human IgG antibodies are bound by amine coupling onto a CM5 chip to capture 6 µg/mL of Fc fused human IL-18Rα, […] of Fc fused human IL-18Rβ, or […] of Fc fused human IL-18BP isoform a (IL-18BPa) for 30 min before capture. In other settings, […] of alpha and beta IL-18 receptors are mixed and pre-incubated for 30 min before capture of the alpha/beta heterodimer IL-18 receptor.
(§2) The kinetic binding of the IL-18 analytes are measured with a Biacore 8K instrument in two fold serial dilutions starting at […] down to 0.98 nM. Regeneration of the surface back to amine coupled anti IgG antibody is done after every concentration of analyte. To measure the protein association to the receptors, the samples are injected with a flow rate of […] for 60 s, followed by 300 s buffer only to detect the dissociation. The used running buffer is 1×PBS with 0.05% Tween20. The relative response units (RU, Y-axis) are plotted against time (s, X-axis) and analyzed in a kinetic 1:1 binding model for the monomer receptor binding and for the binding to the IL-18BP. A kinetic heterogenous ligand fit model is applied for the alpha/beta heterodimer binding.
On the technique in general: In SPR one partner is held on a chip, and binding of the other changes the refractive index at the surface.

In experiment [3] the target is T3, IL-18Rα/β heterodimer (Fc fused human IL-18Rα mixed with Fc fused human IL-18Rβ) (human, UniProt Q13478 19-329; O95256 20-356, limits assumed).
T3 construct: Alpha and beta Fc fusions were mixed and pre-incubated for 30 min before capture on anti-human IgG; also called alpha/beta heterodimer IL-18 receptor; heterodimeric human IL-18 receptor alpha (CD218a) and IL-18R accessory protein (IL-18RAP/CDw218b); not shown: Fc
T3 sequence (looked up) 1: T2 sequence (looked up)
T3 sequence (looked up) 2: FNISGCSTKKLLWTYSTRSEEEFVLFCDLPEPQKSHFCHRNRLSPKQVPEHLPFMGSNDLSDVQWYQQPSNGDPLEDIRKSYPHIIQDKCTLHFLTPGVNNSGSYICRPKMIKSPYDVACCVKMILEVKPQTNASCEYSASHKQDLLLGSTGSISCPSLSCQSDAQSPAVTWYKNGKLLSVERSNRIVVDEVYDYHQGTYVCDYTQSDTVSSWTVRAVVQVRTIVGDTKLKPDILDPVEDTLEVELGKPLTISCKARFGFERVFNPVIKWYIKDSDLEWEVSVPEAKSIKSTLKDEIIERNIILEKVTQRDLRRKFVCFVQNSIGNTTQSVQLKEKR
Put plainly: SPR, Fc-IL-18Rα/β captured, heterogeneous ligand fit. The procedure:
as §1, §2

B1: IL-18 variant SEQ ID NO: 242 (N-terminal G, E6K, V11I, C38A, K53A, T63A, C76A, C127A) (ligand)
chain: GYFGKLKSKLSIIRNLNDQVLFIDQGNRPLFEDMTDSDARDNAPRTIFIISMYADSQPRGMAVAISVKCEKISTLSAENKIISFKEMNPPDNIKDTKSDIIFFQRSVPGHDNKMQFESSSYEGYFLAAEKERDLFKLILKKEDELGDRSIMFTVQNED
Take B1: the “EC50 (read off the curve); SEAP reporter in HEK-Blue IL18R cells (OD 620 nM)” value (“EC50 (read off the curve); SEAP reporter” for short) in experiment [1] was approximately 2 pM. Moreover, the “EC50, HEK-Blue IL18R reporter” value in experiment [2] was determined as 1680 pM.

B2: IL-18 variant SEQ ID NO: 244 (N-terminal G, E6K, V11I, C38A, M51G, K53A, T63A, C76A, C127A) (ligand)
chain: B1 chain with M52G
With B2, the “EC50 (read off the curve); SEAP reporter” value in experiment [1] is approximately 10 pM. Besides, in experiment [2], the “EC50, HEK-Blue IL18R reporter” value was 14000 pM.

B3: IL-18 variant SEQ ID NO: 30 (E6K, V11I, C38A, K53A, T63A, C76A, C127A) (ligand)
chain: YFGKLKSKLSIIRNLNDQVLFIDQGNRPLFEDMTDSDARDNAPRTIFIISMYADSQPRGMAVAISVKCEKISTLSAENKIISFKEMNPPDNIKDTKSDIIFFQRSVPGHDNKMQFESSSYEGYFLAAEKERDLFKLILKKEDELGDRSIMFTVQNED
A word on the Kd: it is the free concentration of one partner at which half of the binding sites on the other are occupied at equilibrium, for simple one-to-one binding. Read a high Kd as a looser complex. A word on the koff: it is the rate constant with which the complex falls apart. Lower therefore signals a long-lived complex. Broadly, the kon is a measure of how fast the partners come together. A low value points to slower complex formation. In the experiment with Fc fused human IL-18Rα, B3 showed a Kd of 30300 pM, a koff of 0.0536 s⁻¹ and a kon of 1.77e+06 M⁻¹ s⁻¹. In experiment [3], this molecule registered a Kd of 490 pM, a koff of 0.000311 s⁻¹ and a kon of 866000 M⁻¹ s⁻¹. Also, the “EC50 (read off the curve); SEAP reporter” value in experiment [1] was approximately 0.05 pM. In experiment [2], the “EC50, HEK-Blue IL18R reporter” value was found to be 53 pM.

B4: IL-18 variant SEQ ID NO: 239 (E6K, V11I, C38A, M51G, K53A, T63A, C76A, C127A) (ligand)
chain: B3 chain with M51G
As to B4, the “EC50 (read off the curve); SEAP reporter” value in experiment [1] was approximately 0.1 pM. Moreover, the “EC50, HEK-Blue IL18R reporter” value in experiment [2] is 100 pM.

B5: IL-18 variant SEQ ID NO: 207 (V11I, C38A, M51G, K53A, C76A, C127A) (ligand)
chain: B3 chain with K6E, M51G, A63T
B5: the “EC50 (read off the curve); SEAP reporter” value in experiment [1] was approximately 4 pM. The “EC50, HEK-Blue IL18R reporter” value in experiment [2] was 800 pM.

B6: IL-18 variant SEQ ID NO: 59 (E6K, C38A, K53A) (ligand)
chain: B3 chain with I11V, A63T, A76C, A127C
For B6, in the experiment with Fc fused human IL-18Rα, binding was put at a Kd of 17800 pM, the koff was determined as 0.0165 s⁻¹ and the kon is 1.77e+06 M⁻¹ s⁻¹. Moreover, in experiment [3], the Kd came out at 660 pM, the koff was 0.000815 s⁻¹ and the kon was 1.24e+06 M⁻¹ s⁻¹. Also, in experiment [1], the “EC50 (read off the curve); SEAP reporter” value is approximately 0.3 pM. The “EC50, HEK-Blue IL18R reporter” value in experiment [2] worked out at 268 pM.

Values taken from patent publication US20250186594A1 (BRIGHT PEAK THERAPEUTICS, published 2025).
